± gives the uncertainty stated by the source.
Assay: self-splicing fitness, log relative to wild type (ln ratio); higher = more splicing; Tetrahymena group I intron in knt gene, E. coli kanamycin selection, DiMSum; sequences stand for … in CUCUCU…GGAGGGAAAAGUUAUCAGGCAUGCACCUGGUAGCUAGUCUUUAAACCAAUAGAUUGCAUCGGUUUAAAAGGCAAGACCGUCAAAUUGCGGGAAAGGGGUCAACAGCCGUUCAGUACCAAGUCUCAGGGGAAACUUUGAGAUGGCCUUGCAAAGGGUAUGGUAAUAAGCUGACGGACAUGGUCCUAACCACGCAGCCAAGUCCUAAGUCAACAGAUCUUCUGUUGAUAUGGAUGCAGUUCACAGACUAAAUGUCGGUCGGGGAAGAUGUAUUCUUCUCAUAAGAUAUAGUCGGACCUCUCCUUAAUGGGAGCUAGCGGAUGAAGUGAUGCAACACUGGAGCCGCUGGGAACUAAUUUGUAUGCGAAAGUAUAUUGAUUAGUUUUGGAGUACUCGUGGUCG
In short: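 Six replicate transformations of E. coli BL21(DE3) with a pET-22b(+) library were grown overnight at 37°C or 30°C. The library randomised all eight P1ex-region intron nucleotides, the intron lying in the knt kanamycin-resistance gene, and plates were LB agar with or without 25 μg/mL kanamycin plus 100 μg/mL carbenicillin, 50 μM IPTG and 0.2% rhamnose. Pooled colonies were amplicon-sequenced on an Illumina HiSeq 2500, and fitness is the DiMSum error-weighted combination of wild-type-normalised replicate fold changes, kanamycin versus none.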

| Sequence | self-splicing fitness (ln) (30 °C) | self-splicing fitness (ln) (37 °C) |
| --- | --- | --- |
| ACCGAGCAAUAUUACGAGUG | -2.82 ± 0.11 | -1.49 ± 0.094 |
| ACCGAGCAAUAUUACGAUGG | -2.27 ± 0.094 | -1.39 ± 0.11 |
| ACCGAGCAAUAUUACGCACC | -2.84 ± 0.22 | -1.08 ± 0.21 |
| ACCGAGCAAUAUUACGCCCU | -2.6 ± 0.25 | 0.248 ± 0.21 |
| ACCGAGCAAUAUUACGCGAU | -2.5 ± 0.14 | -1.73 ± 0.14 |
| ACCGAGCAAUAUUACGCGGA | -2.09 ± 0.1 | -0.721 ± 0.089 |
| ACCGAGCAAUAUUACGCUGU | -3.32 ± 0.17 | -0.834 ± 0.13 |
| ACCGAGCAAUAUUACGGACU | -0.27 ± 0.073 | 0.614 ± 0.1 |
| ACCGAGCAAUAUUACGGAUC | -3.86 ± 0.26 | -1.95 ± 0.2 |
| ACCGAGCAAUAUUACGGUAC | -2.82 ± 0.3 | -2.46 ± 0.33 |
| ACCGAGCAAUAUUACGGUGU | -2.88 ± 0.13 | -2.15 ± 0.12 |
| ACCGAGCAAUAUUACGGUUA | -1.33 ± 0.18 | -1.85 ± 0.17 |
| ACCGAGCAAUAUUACGUGGA | -2.84 ± 0.15 | -2.99 ± 0.18 |
| ACCGAGCAAUAUUACGUGUC | -3.24 ± 0.2 | -3.04 ± 0.27 |
| ACCGAGCAAUAUUACGUUAU | -3.78 ± 0.14 | -2.6 ± 0.15 |
| ACCGAGCAAUAUUACGUUCU | -2.38 ± 0.074 | -1.01 ± 0.074 |
| ACCGAGCAAUAUUACGUUUG | -2.86 ± 0.13 | -2.19 ± 0.14 |
| ACCUAGCAAUAUUACGAAGG | -2.16 ± 0.086 | -1.85 ± 0.15 |
| ACCUAGCAAUAUUACGACCC | -0.886 ± 0.2 | -0.637 ± 0.31 |
| ACCUAGCAAUAUUACGAGCA | -1.17 ± 0.1 | -1.59 ± 0.14 |
| ACCUAGCAAUAUUACGAGCG | -1.06 ± 0.085 | -0.509 ± 0.097 |
| ACCUAGCAAUAUUACGAUUC | -1.72 ± 0.083 | -0.58 ± 0.097 |
| ACCUAGCAAUAUUACGCAGG | -3.34 ± 0.23 | -2.73 ± 0.26 |
| ACCUAGCAAUAUUACGCAUC | -1.83 ± 0.072 | -0.436 ± 0.078 |
| ACCUAGCAAUAUUACGGACA | -0.384 ± 0.075 | -0.189 ± 0.08 |

| Sequence | self-splicing fitness (ln) (30 °C) | self-splicing fitness (ln) (37 °C) |
| --- | --- | --- |
| ACCUAGCAAUAUUACGGACC | -0.548 ± 0.16 | 0.368 ± 0.17 |
| ACCUAGCAAUAUUACGGCGA | -1.49 ± 0.12 | -0.462 ± 0.11 |
| ACCUAGCAAUAUUACGGGAG | -1.93 ± 0.072 | -1.41 ± 0.088 |
| ACCUAGCAAUAUUACGGGGU | -3.47 ± 0.16 | -2.61 ± 0.17 |
| ACCUAGCAAUAUUACGGUAC | -3.75 ± 0.37 | -2.76 ± 0.26 |
| ACCUAGCAAUAUUACGGUGC | -1.87 ± 0.074 | -0.926 ± 0.092 |
| ACCUAGCAAUAUUACGGUGU | -2.97 ± 0.1 | -1.93 ± 0.12 |
| ACCUAGCAAUAUUACGGUUG | -3.37 ± 0.13 | -2.71 ± 0.17 |
| ACCUAGCAAUAUUACGUCAC | -4.1 ± 0.18 | -1.83 ± 0.2 |
| ACCUAGCAAUAUUACGUCGC | -2.66 ± 0.18 | -0.636 ± 0.15 |
| ACCUAGCAAUAUUACGUCUG | -2.84 ± 0.2 | -2.03 ± 0.15 |
| ACCUAGCAAUAUUACGUUAC | -3.6 ± 0.21 | -3.13 ± 0.23 |
| ACCUAGCAAUAUUACGUUCG | -1.5 ± 0.078 | -0.444 ± 0.096 |
| ACGAAGCAAUAUUACGACAC | -2.4 ± 0.13 | -0.952 ± 0.14 |
| ACGAAGCAAUAUUACGACAU | -0.681 ± 0.011 | -0.109 ± 0.032 |
| ACGAAGCAAUAUUACGACCA | -0.752 ± 0.15 | -0.848 ± 0.13 |
| ACGAAGCAAUAUUACGACGA | -1.04 ± 0.097 | -0.181 ± 0.12 |
| ACGAAGCAAUAUUACGAGAA | -1.6 ± 0.37 |  |
| ACGAAGCAAUAUUACGAGGA | -3.29 ± 0.44 | -2 ± 0.29 |
| ACGAAGCAAUAUUACGAGUU | -3.04 ± 0.11 | -1.91 ± 0.15 |
| ACGAAGCAAUAUUACGAUCG | -0.102 ± 0.073 | 0.139 ± 0.11 |
| ACGAAGCAAUAUUACGAUGU | -3.96 ± 0.19 | -2.74 ± 0.18 |
| ACGAAGCAAUAUUACGCACU | -0.656 ± 0.094 | -0.172 ± 0.11 |
| ACGAAGCAAUAUUACGCCGC | -3.56 ± 0.21 | -2.02 ± 0.24 |
| ACGAAGCAAUAUUACGCCGG | -0.858 ± 0.11 | -0.467 ± 0.11 |

| Sequence | self-splicing fitness (ln) (30 °C) | self-splicing fitness (ln) (37 °C) |
| --- | --- | --- |
| ACGAAGCAAUAUUACGCCUC | -2.93 ± 0.31 | -1.77 ± 0.47 |
| ACGAAGCAAUAUUACGCGAC | -3.14 ± 0.2 | -1.78 ± 0.19 |
| ACGAAGCAAUAUUACGCGUU | -4.06 ± 0.33 | -2 ± 0.21 |
| ACGAAGCAAUAUUACGGAAG | -2.54 ± 0.12 | -2.4 ± 0.19 |
| ACGAAGCAAUAUUACGGCAC | -2.03 ± 0.17 | -0.996 ± 0.24 |
| ACGAAGCAAUAUUACGGCCG | -0.664 ± 0.19 | 0.746 ± 0.29 |
| ACGAAGCAAUAUUACGGGAG | -3.96 ± 0.22 | -2.73 ± 0.17 |
| ACGAAGCAAUAUUACGGUAC | -5.02 ± 0.38 | -2.24 ± 0.17 |
| ACGAAGCAAUAUUACGGUGG | -3.93 ± 0.15 | -2.56 ± 0.23 |
| ACGAAGCAAUAUUACGUAAC | -4.3 ± 0.42 | -2.34 ± 0.49 |
| ACGAAGCAAUAUUACGUAUA | -2.5 ± 0.12 | -2.16 ± 0.12 |
| ACGAAGCAAUAUUACGUCAU | -2.99 ± 0.12 | -2.81 ± 0.14 |
| ACGAAGCAAUAUUACGUUCU | -1.24 ± 0.07 | -0.898 ± 0.081 |
| ACGAAGCAAUAUUACGUUGA | -2.14 ± 0.17 | -1.22 ± 0.12 |
| ACGAAGCAAUAUUACGUUUG | -1.27 ± 0.071 | -1.16 ± 0.11 |
| ACGCAGCAAUAUUACGACAC | -1.83 ± 0.13 | -0.767 ± 0.16 |
| ACGCAGCAAUAUUACGAGCU | -2.76 ± 0.12 | -1.18 ± 0.12 |
| ACGCAGCAAUAUUACGAGGC | -2.95 ± 0.16 | -2.79 ± 0.3 |
| ACGCAGCAAUAUUACGAGUU | -3.67 ± 0.13 | -1.6 ± 0.11 |
| ACGCAGCAAUAUUACGAUAA | -2.84 ± 0.19 | -1.95 ± 0.15 |
| ACGCAGCAAUAUUACGAUAC | -2.56 ± 0.2 | -1.87 ± 0.19 |
| ACGCAGCAAUAUUACGCCCC | -0.51 ± 0.21 | -0.189 ± 0.28 |
| ACGCAGCAAUAUUACGCGAG | -2.56 ± 0.12 | -0.987 ± 0.11 |
| ACGCAGCAAUAUUACGCUUG | -3.56 ± 0.21 | -2.55 ± 0.2 |
| ACGCAGCAAUAUUACGGAAG | -3.57 ± 0.24 | -1.75 ± 0.16 |

| Sequence | self-splicing fitness (ln) (30 °C) | self-splicing fitness (ln) (37 °C) |
| --- | --- | --- |
| ACGCAGCAAUAUUACGGAGC |  | -2.47 ± 0.26 |
| ACGCAGCAAUAUUACGGGAA | -2.99 ± 0.14 | -2 ± 0.12 |
| ACGCAGCAAUAUUACGGGUU | -2.19 ± 0.069 | -1.92 ± 0.092 |
| ACGCAGCAAUAUUACGUAUC | -2.47 ± 0.2 | -1.18 ± 0.17 |
| ACGCAGCAAUAUUACGUCAC | -4.13 ± 0.39 | -2.54 ± 0.19 |
| ACGCAGCAAUAUUACGUCAU | -3.44 ± 0.12 | -1.52 ± 0.11 |
| ACGCAGCAAUAUUACGUCCC |  | -0.268 ± 0.48 |
| ACGCAGCAAUAUUACGUUCU | -1.1 ± 0.082 | -0.958 ± 0.09 |
| ACGCAGCAAUAUUACGUUUU | -3.43 ± 0.12 | -2.11 ± 0.11 |
| ACGGAGCAAUAUUACGAAAC |  | -1.46 ± 0.31 |
| ACGGAGCAAUAUUACGAACG | -2.54 ± 0.16 | -0.693 ± 0.16 |
| ACGGAGCAAUAUUACGAAUU | -3.52 ± 0.26 | -2.5 ± 0.27 |
| ACGGAGCAAUAUUACGACUU | -2.69 ± 0.1 | -1.37 ± 0.11 |
| ACGGAGCAAUAUUACGAUCC |  | -1.94 ± 0.47 |
| ACGGAGCAAUAUUACGCAAC |  | -2.4 ± 0.35 |
| ACGGAGCAAUAUUACGCAGG | -1.72 ± 0.15 | -2.41 ± 0.35 |
| ACGGAGCAAUAUUACGCAGU | -3.19 ± 0.34 | -2.35 ± 0.49 |
| ACGGAGCAAUAUUACGCAUG | -2.65 ± 0.2 | -2.28 ± 0.23 |
| ACGGAGCAAUAUUACGCCGA | -1.94 ± 0.25 | -1.49 ± 0.19 |
| ACGGAGCAAUAUUACGCGCA | -1.39 ± 0.23 | -1.64 ± 0.17 |
| ACGGAGCAAUAUUACGCGUG | -2.24 ± 0.12 | -0.943 ± 0.11 |
| ACGGAGCAAUAUUACGCUCG | -1.67 ± 0.14 | -1.01 ± 0.16 |

Source: the supplement of paper PMC7877785
